In PMC3828348:

System: GST-KSRP
Assay: competition
Settings: REMSA: 50 mM Tris-HCl pH 7.0, 150 mM NaCl, 0.25 mg/ml tRNA, 0.25 mg/ml BSA, 5% glycerol, 10 min 37°C; competition: 10 mM HEPES pH 7.4, 100 mM KCl, 5 mM MgCl2 …; scale: % HuD binding remaining at equimolar KSRP

Question: With GAP-43 ARE RNA (pGAP/B transcript) as the substance, how does the binding signal read?
Answer: 50
